Target: T1, Aha1 (yeast, UniProt Q12449 1-350)
T1 sequence (looked up): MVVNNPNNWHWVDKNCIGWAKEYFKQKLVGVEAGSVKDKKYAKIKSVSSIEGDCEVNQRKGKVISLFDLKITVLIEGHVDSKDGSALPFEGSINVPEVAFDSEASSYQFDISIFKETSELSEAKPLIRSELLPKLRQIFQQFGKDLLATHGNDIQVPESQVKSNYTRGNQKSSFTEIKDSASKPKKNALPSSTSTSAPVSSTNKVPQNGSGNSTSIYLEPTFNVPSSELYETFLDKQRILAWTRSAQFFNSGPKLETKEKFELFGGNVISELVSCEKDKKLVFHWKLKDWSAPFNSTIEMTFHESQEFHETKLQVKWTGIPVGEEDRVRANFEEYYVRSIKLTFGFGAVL
Experiment: cell-based or functional assay

stimulation of the chaperone's ATPase activity by Aha1 (NADH coupled enzymatic assay, hsp90:Aha1 1:2): 10 fold
B1: yeast Hsp90 (natural protein)
chain: not shown

Source: article PMC5100913 (PLoS ONE, 2016)
